Numbering of substitutions follows the chain as printed. Names may count otherwise.
Tests used:
[1] = test system: MFc7 mouse renal myofibroblasts; experiment: Alkaline phosphatase stimulation in MFc7 cells; assay type: cell-based; details: 1 μg/ml pro-BMP7, 1 μM ATRA, 48 hours
Procedure: (§1) 3T3-L1 fibroblasts and MFc7 mouse renal myofibroblasts may be grown essentially as described in Example 2 above. After 48 hours the cells may be washed with PBS prior to the addition of either DMEM/2% dialyzed FBS or OPTI-MEM/2% dialyzed FBS medium containing control vehicle, 1 μg/ml human proBMP7 protein, 1 μM ATRA or a combination of both human BMP7 protein (1 μg/ml) and ATRA (1 μM) may be added for 48 hours. After treatment the cells may be rinsed with PBS and stored at −80° C. for approximately 20 minutes. The cells may be thawed at 37° C. for 30 minutes and 100 μl of PNPP may be added to every well. The plate may be incubated at 37° C. for 1 hour. The absorbance at 405 nm may be read on a plate reader.

[2] = Thermal unfolding assay (circular dichroism); assay type: physicochemical; details: CD at 208 nm; 10 mM citrate, 300 mM NaCl, pH 7.4
Procedure: The effect of temperature on the conformational stability of human BMP7 protein variants may be followed by circular dichroism (CD) on a Jasco J-810 instrument equipped with a thermoelectric sample compartment. Briefly stated, 0.2-1.0 mg/mL pro-BMP7 may be formulated in storage buffer (10 mM citrate, 300 mM NaCl, pH 7.4) and loaded into a 0.02 cm path-length CD cuvette. The sample may be heated from 20 to 80° C. at a linear rate of 1° C./minute and the resulting CD signal at 208 nm may be recorded every 0.2° C. using a 1 second signal response time. A non-linear fit to equation 1 may be performed by the program JMP (SAS Institute Inc, Cary, N.C.) to obtain the thermal unfolding mid-point (Tm).
[formula] where, Yu and Yf are fit and represent the Y-intercept of the pre- and post-transition baselines, respectively. Mu and Mf are fit and represent the slope of the pre- and post-transition baselines, respectively. Hm and S are fit and represent enthalpy and entropy, respectively. T is the measured temperature in Kelvin units.

[3] = test system: 3T3-L1 fibroblasts; experiment: Alkaline phosphatase stimulation in 3T3-L1 cells; assay type: cell-based; details: 1 μg/ml pro-BMP7, 1 μM ATRA, 48 hours
Procedure: as §1

[4] = test system: RAR gamma; experiment: RAR gamma protein expression, Western Blot; assay type: cell-based, mouse; details: MFc7 and 3T3-L1 cell lines; 1 μg/mL, 48 hours; Western Blot intensity
Procedure: (§2) 3T3-L1 fibroblasts and MFc7 mouse renal myofibroblasts may be maintained under routine cell culture conditions in DMEM/10% calf serum medium or OPTI-MEM/10% FBS medium, respectively. The cells may be plated in 10 cm tissue culture plates at a seeding density of 500,000 cells/plate. After 48 hours, the cells may be washed with PBS prior to the addition of either DMEM/2% dialyzed FBS or OPTI-MEM/2% dialyzed FBS medium containing 1 μg/mL human BMP7 protein or 1 μg/mL of a human BMP7 protein variant. The cells may be incubated for 48 hours and then rinsed with ice-cold PBS, and then lysed with Protein Extraction Reagent. Then lysates may be centrifuged at 14,000×g for 15 minutes. A Bradford protein assay may be performed to determine the protein concentration of each lysate. Equivalent amounts of protein (for example, 25 μg) may be resolved by SDS-PAGE and then transferred to nitrocellulose membranes for Western Blot analysis. The membranes may be probed with an anti-RAR alpha antibody and/or an anti-RAR gamma antibody.

[5] = test system: MFc7 mouse renal myofibroblasts; experiment: MFc7 bioassay; assay type: cell-based; details: EC50 of wild type BMP7 protein/EC50 of the variant; multiple amino acid changes (Table 3)
Procedure: MFc7 mouse renal myofibroblasts (mouse kidney fibroblast cell line) may be maintained under routine cell culture conditions in OPTI-MEM/10% FBS medium. The cells may be plated in 10 cm tissue culture plates at a seeding density of 500,000 cells/plate. After approximately 48 hours, the cells may be washed with phosphate buffered saline (PBS) prior to the addition of OPTI-MEM/2% dialyzed fetal bovine serum (FBS) medium containing 1 μg/ml BMP7 protein or 1 μg/ml of a BMP7 protein variant and incubated for 48 hours. After treatment the cells may be rinsed with PBS and stored at −80° C. for 20 minutes. After thawing the cells at 37° C. for 30 minutes 100 μl of para-nitrophenyl phosphate (PNPP) may be added. The plate may be incubated at 37° C. for 1 hour. The absorbance at 405 nm may be read utilizing a plate reader. The average relative potency (EC50 of wild type BMP7 protein/EC50 of the BMP7 protein variant) of certain human BMP7 protein variants of the present invention may be calculated based on such readings.

[6] = test system: rat primary articular chondrocytes (RPACs); experiment: Chondrogenesis assay (pellet culture); assay type: cell-based; details: 2 weeks in culture
Procedure: The effect of wild type human mature BMP7 and variants thereof may be evaluated for differentiation of chondrocytes in an in vitro model utilizing rat primary articular chondrocytes (RPACs). To obtain RPACs, articular cartilage may be isolated from 2-3 day old rats. The cartilage may be digested with 0.4% collagenase for 2 hours and then the resultant cells may be washed with phosphate buffered saline and subsequently cultured in media containing DMEM, 10% FBS and 1% penicillin/streptomycin in humidified air with 5% CO2 at 37° C.
To assess the chondrogenic differentiation, a pellet culture system may be used. Approximately 2×10^5 cells from passage 2-3 may be placed in 1.5 ml tubes and centrifuged at 500 g for 10 minutes. The pellets may be cultured at 37° C. with 5% CO2 in 500 μl of medium. […] The media may be replaced twice per week for 2 weeks. After 2 weeks in culture, the pellets may be harvested and macroscopic analysis was performed by stereomicroscopic procedures. The images may be analyzed and the pellet sizes may be calculated in a 2-dimensional image.

[7] = test system: RAR alpha; experiment: RAR alpha protein expression, Western Blot; assay type: cell-based, mouse; details: MFc7 and 3T3-L1 cell lines; 1 μg/mL, 48 hours; Western Blot intensity
Procedure: as §2

Wild type human pro-BMP7: homodimers of wild type human mature BMP7 in a non-covalent complex with wild type human pro-domain [reference compound]
fold change in alkaline phosphatase stimulation relative to control vehicle treated cells [1]: 21 fold
thermal unfolding mid-point (Tm) [2]: 61 °C
fold change in alkaline phosphatase stimulation relative to control vehicle treated cells [3]: 1.2 fold

B1: Human mature BMP7 protein variant F9 (SEQ ID NO: 8): homodimer wherein each monomeric subunit has SEQ ID NO: 8 (Y65G/I86L/F93V/N110G/Y128W), disulfide linked (protein)
chain: STGSKQRSQNRSKTPKNQEALRMANVAENSSSDQRQACKKHELYVSFRDLGWQDWIIAPEGYAAGYCEGECAFPLNSYMNATNHALVQTLVHVINPETVPKPCCAPTQLGAISVLYFDDSSNVILKKWRNMVVRACGCH
modifications: homodimer, disulfide linked
RAR gamma protein expression [4]: stimulated
Average Relative Potency [5]: 69
Pellet Size ([6]; Treatment 0.014 nM): 0.67 ± 0.16 mm^2
Pellet Size ([6]; Treatment 0.14 nM): 1.56 ± 0.46^a mm^2
Pellet Size ([6]; Treatment 1.4 nM): 2.61 ± 0.18^a mm^2
RAR alpha protein expression [7]: stimulated

B2: Wild type human mature BMP7 (SEQ ID NO: 2): dimer of two glycosylated, 139 amino acid disulfide-linked proteins of about 35 kDa, SEQ ID NO: 2 (protein, listed as Homo sapiens)
chain: B1 chain with G65Y, L86I, V93F, G110N, W128Y
modifications: disulfide-linked glycosylated homodimer
Pellet Size ([6]; Treatment 0.02 nM): 0.64 ± 0.15 mm^2
Pellet Size ([6]; Treatment 0.2 nM): 0.70 ± 0.03 mm^2
Pellet Size ([6]; Treatment 2 nM): 0.83 ± 0.13 mm^2
